Test results taken from patent publication US8691225B2, “Antibodies against the ectodomain of ErbB3 and uses thereof” (Merrimack Pharmaceuticals, Inc., priority 2007, dated 2014).

Tests used:
[1] = test system: phosphorylated ErbB3 (pErbB3) in AdrR ovarian xenografts; assay: ErbB3 phosphorylation in AdrR ovarian xenografts in vivo; parameters: species or system mouse; conditions: pErbB3 in ng/mg of total protein
Description: The samples are pulverized substantially as described in Example 5 supra, with respect to FIG. 8. The BCA assay is performed substantially as set forth in the Materials and Methods section supra, and the ELISA assay is performed substantially as described in Example 5 supra with respect to FIG. 8.

[2] = test system: OVCAR8 spheroids; assay: spheroid growth assay; format: cell-based, human; conditions: OVCAR8, 25 μg/ml on days 1 and 4
Description: Subconfluent cells are trypsinized, counted, and resuspended in filtered medium. The cell concentration is adjusted to 100,000 cells/ml, and one 20 ul drop (containing 2000 cells) is added to each ring on the underside of the lid of a 96-well plate. The lids with these hanging droplets are then placed back on the original 96-well plate, which contained 100 ul of PBS in each well to maintain moisture. Four days after initial plating, the hanging droplets containing the spheroids are replated into new 96-well plates. This replating involves transferring the lid containing the hanging droplets to a fresh 1% agarose/RPMI-coated 96-well plate that contains 150 ul of medium per well. The plate and lid are then centrifuged together at 500 rpm for 1 minute to transfer the spheroid-containing drops from the lids to the wells. Plates are then further incubated at 37° C. in a humidified CO2 incubator. Spheroids are photographed in an inverted phase contrast microscope. A micrometer scale is also photographed at the same magnification to determine spheroid size. The diameter of the spheroids is determined using METAMORPH image analysis software (MDS Analytical Technologies).
Multicellular tumor spheroids are generated as before.

[3] = test system: three different xenografts; assay: VEGF secretion in xenografts in vivo
Description: Inhibition of VEGF correlates with inhibition of ErbB3 phosphorylation (FIG. 24C). […] Inhibition of VEGF secretion is also known in the art to correlate with inhibition of tumor induced angiogenesis, a facilitator of tumor growth.

[4] = molecular target: T1, ErbB3 in MALME-3M cells (Homo sapiens, UniProt P21860); assay: total ErbB3 levels in MALME-3M cells in vitro by ELISA; format: cell-based; conditions: 24 hours
T1 construct: ErbB3 expressed on MALME-3M melanoma cells; host or cells: MALME-3M melanoma cells
Description: MALME-3M cells are seeded in 96 well tissue culture plates and grown in RPMI-1640 media supplemented with antibiotics, 2 mM L-glutamine and 10% fetal bovine serum (FBS) for 24 hours at 37° C. and 5% carbon dioxide. Media are then switched to the same medium without FBS and with and without the antibody at concentrations of 1 uM, 250 nM, 63 nM, 16 nM, 4.0 nM, 1.0 nM, 240 pM, 61 pM and 15 pM. Medium containing no FBS or antibody is used as control. Cells are grown for 24 hours at 37° C. and 5% carbon dioxide, washed with cold PBS, then harvested with mammalian protein extract (MPER) lysis buffer (Pierce, 78505) to which 150 mM NaCl, 5 mM sodium pyrophosphate, 10 uM bpV (phen), 50 uM phenylarsine, 1 mM sodium orthovanadate, and protease inhibitor cocktail (Sigma, P2714) is added. Cell lysates are diluted two-fold with 4% bovine serum albumin in PBST (0.1% tween-20), then analyzed by ELISA with mouse anti-human ErbB3 capture antibody and biotinylated mouse anti-human ErbB3 secondary detection antibody. Signal is generated with streptavidin conjugated to horseradish-peroxidase reacted with SUPERSIGNAL ELISA Pico chemiluminescent substrate (Pierce, 37070). ELISAs are quantitated using a luminometer.

[5] = molecular target: ErbB3 (Homo sapiens, UniProt P21860); assay: Surface Plasmon Resonance Assay; format: binding
[6] = test system: HGF induced ErbB3 phosphorylation in AdrR cells; assay: HGF induced ErbB3 phosphorylation in AdrR cells; format: cell-based, human
Description: Various ligands are tested for inducement of ErBb3 phosphorylation. At least three ligands, HRG, BTC, and HGF, are able to stimulate ErbB3 induced phosphorylation in AdrR cells, while EGF can not. […] Further, as known in the art (see, e.g., Wallenius et al. (2000) Am J Pathol. 156 (3):821-9), enhanced HGF signaling has been reported in various epithelial and non-epithelial tumors.
c-MET-ErbB3 interactions also occur in AdrR cells carrying the wild type EGFR and is not dependent on amplified c-MET.

[7] = test system: DU145 (a prostate tumor cell line) xenograft tumors; assay: DU145 xenograft combination therapy; format: in vivo, mouse; conditions: Ab #6 300 μg IP every three days; taxol 20 mg/kg IP once per week
Description: In a second experiment, mice bearing DU145 (a prostate tumor cell line) xenograft tumors are prepared by establishing tumors subcutaneously in the flanks of nude mice (Charles River Laboratories). […] Again, tumor size is measured twice a week and measurements are used to calculate tumor volume.

[8] = molecular target: T2, epiregulin binding to AdrR cells (Homo sapiens, UniProt P21860); assay: biotinylated epiregulin binding to AdrR cells by FACS; format: cell-based; conditions: 12.5 μM antibodies, 1 μM Epi
T2 construct: host or cells: AdrR (NCI/AdrR) ovarian cancer cells
Description: After 30 minutes, 50 μl of 2 μM biotinylated Epi is added to the cells and incubated for another 30 minutes on ice. This yields a final concentration of 12.5 μM antibodies and 1 μM Epi. Cells are then washed twice with 500 μl BD stain buffer and incubated with 100 μl of a 1:200 dilution of streptavidin-PE (PE=phycoerythrin, a fluorescent protein) (Invitrogen) in BD stain buffer for 45 minutes. Finally, cells are washed twice, resuspended in 300 μl of BD stain buffer and analyzed in a FACSCALIBUR flow cytometer. As a positive control, 1×10^5 AdrR cells are incubated with 1 μM Epi for 30 minutes on ice, washed twice and incubated with a 1:200 dilution of streptavidin-PE for 45 minutes. To assess background staining from the streptavidin-PE conjugate, cells are incubated with 100 μl of a 1:200 dilution of streptavidin-PE only for 45 minutes.

[9] = test system: AdrR ovarian cancer cells; assay: CellTiter-Glo proliferation assay; format: cell-based, human; conditions: 96 hours
Description: (§1) MALME3M, ACHN and NCI/AdrR cells are seeded in 96 well tissue culture plates and grown in RPMI-1640 media supplemented with antibiotics, 2 mM L-glutamine and 10% FBS for 24 hours at 37 degrees Celsius and 5% carbon dioxide. […] Cells are grown for 96 hours at 37° C. and 5% carbon dioxide, then harvested with CellTiter-Glo® Luminescent Cell Viability Assay (Promega, G7573) and analyzed on a luminometer. Media containing no serum and antibody is used as control.

[10] = test system: MALME-3M cells; assay: CellTiter-Glo proliferation assay; format: cell-based, human; conditions: 96 hours
Description: as §1

[11] = test system: ACHN cells; assay: CellTiter-Glo proliferation assay; format: cell-based, human; conditions: 96 hours
Description: as §1

B1: Ab #6: human anti-ErbB3 antibody from Fab-phage library, CDRs SEQ ID NOs:7-12; used as IgG1 and IgG2 isotypes; in phase I trials as MM-121 (antibody, V domains shown)
VH: EVQLLESGGGLVQPGGSLRLSCAASGFTFSHYVMAWVRQAPGKGLEWVSSISSSGGWTLYADSVKGRFTISRDNSKNTLYLQMNSLRAEDTAVYYCTRGLKMATIFDYWGQGTLVTVSS
VL: QSALTQPASVSGSPGQSITISCTGTSSDVGSYNVVSWYQQHPGKAPKLIIYEVSQRPSGVSNRFSGSKSGNTASLTISGLQTEDEADYYCCSYAGSSIFVIFGGGTKVTVL
inhibition of ErbB3 phosphorylation in vivo [1]: significantly inhibited ErbB3 phosphorylation | decrease in spheroid area [2]: 30-40% | inhibition of VEGF secretion in vivo [3]: inhibiting VEGF secretion in three different xenografts, the highest being in COLO-357 xenograft | decrease of total ErbB3 levels [4]: about 46.9% | competition with HRG for binding to ErbB3 [5]: competes with HRG for binding to ErbB3 | inhibition of HGF induced ErbB3 phosphorylation ([6]; AdrR cells): inhibits HGF induced ErbB3 phosphorylation | IC50 ([6]; HGF induced ErbB3 phosphorylation in AdrR cells (FIG. 28)): 0.244 nM | inhibition of tumor growth (tumor volume) [7]: inhibited tumor growth | inhibition of epiregulin binding to AdrR cells [8]: inhibited | inhibition of proliferation [9]: about 30.5% | inhibition of proliferation [10]: about 19.6% | inhibition of proliferation [11]: about 25.4%
